Measurements from FireProtDB (doi:10.1073/pnas.0911904107).

B1: Lipid A palmitoyltransferase PagP, P37001 (parent)
chain: MNVSKYVAIFSFVFIQLISVGKVFANADEWMTTFRENIAQTWQQPEHYDLYIPAITWHARFAYDKEKTDRYNERPWGGGFGLSRWDEKGNWHGLYAMAFKDSWNKWEPIAGYGWESTWRPLADENFHLGLGFTAGVTARDNWNYIPLPVLLPLASVGYGPVTFQMTYIPGTYNNGNVYFAWMRFQF

Variants of: B1
Settings: Escherichia coli (strain K12), pH 8, 25 °C, Urea, CD, structure 1THQ, whole UniProt chain shown
[1] = Sodium phosphate 50 mM, reversible: Yes
[2] = sodium phosphate buffer, transition: 2, reversible: yes

Variant | ddG of mutation (higher = less stable) [1] [kcal/mol] | denaturant midpoint (higher = more stable) [1] [M] | unfolding free energy [1] [kcal/mol] | ddG of mutation (higher = less stable) [2] [kcal/mol] | denaturant midpoint (higher = more stable) [2] [M] | unfolding free energy [2] [kcal/mol] | denaturant m value [1] [kcal/mol/M]
MNVSKYVAIFSFVFIQLISVGKVFANADEWMTTFRENIAQTWQQPEHYDLYIPAITWHARFAYDKEKTDRYNERPWGGGFGLSRWDEKGNWHGLYAMAFKDSWNKWEPIAGYGWESTWRPLADENFHLGLGFTAGVTARDNWNYIPLPVLLPLASVGYGPVTFQMTYIPGTYNNGNVYFAWARFQF [M182A] | 0.77 | 8.3 | 13.6 |  |  |  | 
MNVSKYVAIFSFVFIQLISVGKVFANADEWMTTFRENIAQTWQQPEHYDLYIPAITWHARFAYDKEKTDRYNERPWGGGFGLSRWDEKGNWHGLYAMAFKDSWNKWEPIAGYGWESTWRPLADENFHLGLGFTAGVTARDNWNYIPLPVLLPLASVGYGPVTFQMTYIPGTYNNGNVAFAWMRFQF [Y178A] | 0.55 | 8.43 | 13.8 | 5.95 | 8.43 | 8.43 | 
MNVSKYVAIFSFVFIQLISVGKVFANADEWMTTFRENIAQTWQQPEHYDLYIPAITWHARFAYDKEKTDRYNERPWGGGFGLSRWDEKGNWHGLYAMAFKDSWNKWEPIAGGGWESTWRPLADENFHLGLGFTAGVTARDNWNYIPLPVLLPLASVGYGPVTFQMTYIPGTYNNGNVYFAWMRFQF [Y112G] |  |  |  | 6.14 | 8.24 | 8.24 | 
MNVSKYVAIFSFVFIQLISVGKVFANADEWMTTFRENIAQTAQQPEHYDLYIPAITWHARFAYDKEKTDRYNERPWGGGFGLSRWDEKGNWHGLYAMAFKDSWNKWEPIAGYGWESTWRPLADENFHLGLGFTAGVTARDNWNYIPLPVLLPLASVGYGPVTFQMTYIPGTYNNGNVYFAWMRFQF [W42A] |  |  |  | 6.21 | 8.17 | 8.17 | 
MNVSKYVAIFSFVFIQLISVGKVFANADEWMTTFRENIAQTWQQPEHYDLYIPAITWHARFAYDKEKTDRYNERPWGGGFGLSRWDEKGNWHGLYAMAFKDSWNKWEPIAGYGWESTWRPLADENFHLGLGFTAGVTARDNWNYIPLPVLLPLAAVGYGPVTFQMTYIPGTYNNGNVYFAWMRFQF [S155A] | 1.27 | 8 | 13.1 | 6.38 | 8 | 8 | 
MNVSKYVAIFSFVFIQLISVGKVFANADEWMTTFRENIAQTWQQPEHYDLYIPAITWHARFAYDKEKTDRYNERPWGGGFGLSRWDEKGNWHGLYAMAFKDSWNKWEPIAGYGWESTWRPLADENFHLGLGFTAGVTARDNWNYIPLPVLLPLASVGYGPVTFAMTYIPGTYNNGNVYFAWMRFQF [Q164A] | 0.97 | 8.18 | 13.4 | 6.2 | 8.18 | 8.18 | 
MNVSKYVAIFSFVFIQLISVGKVFANADEWMTTFRENIAQTWQQPEHYDLYIPAITWHARFAYDKEKTDRYNERPWGGGFGLSRWDEKGNWHGLYAMAFKDSWNKWEPIAGYGWESTWRPLADENFHLGLGFTAGVTARDNWNYIPLPVLLPLASVGYGPVAFQMTYIPGTYNNGNVYFAWMRFQF [T162A] | 0.51 | 8.46 | 13.9 | 5.92 | 8.46 | 8.46 | 
MNVSKYVAIFSFVFIQLISVGKVFANADEWMTTFRENIAQTWQQPEHYDLYIPAITWHARFAYDKEKTDRYNERPWGGGFGLSRWDEKGNWHGLYAMAFKDSWNKWEPIAGYGWASTWRPLADENFHLGLGFTAGVTARDNWNYIPLPVLLPLASVGYGPVTFQMTYIPGTYNNGNVYFAWMRFQF [E115A] | 0.66 | 8.37 | 13.7 | 6.01 | 8.37 | 8.37 | 
MNVSKYVAIFSFVFIQLISVGKVFANADEWMTTFRENIAQTWQQPEHYDLYIPAITWHARFAYDKEKTDRYNERPWGGGFGLSRWDEKGNWHGLYAMAFKDSWNKWEPIAGYGWESTWRPLADENFHLGLGFTAGVTARDNWNYIPLPVLLPLASVGYGPVTFQMTYIPGTYNNGNVYFAWMRFAF [Q185A] | -0.18 | 8.88 | 14.6 | 5.5 | 8.88 | 8.88 | 1.64
MNVSKYVAIFSFVFIQLISVGKVFANADEWMTTFRENIAQTWQQPEHYDLYIPAITWHARFAYDKEKTDRYNERPWGGGFGLSRWDEKGNWHGLYAMAFKDSWNKWEPIAGYGWESTWAPLADENFHLGLGFTAGVTARDNWNYIPLPVLLPLASVGYGPVTFQMTYIPGTYNNGNVYFAWMRFQF [R119A] | 1.53 | 7.84 | 12.8 | 6.54 | 7.84 | 7.84 | 
MNVSKYVAIFSFVFIQLISVGKVFANADEWMTTFRENIAQTWQQPEHYDLYIPAITWHARFAYDKEKTDRYNERPWGGGFGLSRWDEKGNWHGLYAMAFKDSWNKWEPIAGYGWESTWRPLADENFHLGLGFAAGVTARDNWNYIPLPVLLPLASVGYGPVTFQMTYIPGTYNNGNVYFAWMRFQF [T133A] | 0.4 | 8.52 | 14 | 5.86 | 8.52 | 8.52 | 
MNVSKYVAIFSFVFIQLISVGKVFANADEWMTTFRENIAQTWQQPEHYDLYIPAITWHARFAYDKEKTDRYNERPWGGGFGLSRWDEKGNWHGLYAMAFKDSWNKWEPIAGYGWESTWRPLADENFHLGAGFTAGVTARDNWNYIPLPVLLPLASVGYGPVTFQMTYIPGTYNNGNVYFAWMRFQF [L130A] | 0.76 | 8.3 | 13.6 | 6.08 | 8.3 | 8.3 | 
